According to publication PMC5517563 (Scientific Reports, 2017):

How the values were obtained:
[1] = biological target: T1, MtACK (Methanosarcina thermophila acetate kinase) (Methanosarcina thermophila, UniProt P38502); assay: reverse modified hydroxamate assay ([…] nm); format: biochemical; conditions: read-out: ATP IC50 (mM) / Acetate-forming direction
T1 construct: gene ackA; recombinant, produced in E. coli Rosetta2 (DE3) pLysS
T1 sequence (P38502 1-408): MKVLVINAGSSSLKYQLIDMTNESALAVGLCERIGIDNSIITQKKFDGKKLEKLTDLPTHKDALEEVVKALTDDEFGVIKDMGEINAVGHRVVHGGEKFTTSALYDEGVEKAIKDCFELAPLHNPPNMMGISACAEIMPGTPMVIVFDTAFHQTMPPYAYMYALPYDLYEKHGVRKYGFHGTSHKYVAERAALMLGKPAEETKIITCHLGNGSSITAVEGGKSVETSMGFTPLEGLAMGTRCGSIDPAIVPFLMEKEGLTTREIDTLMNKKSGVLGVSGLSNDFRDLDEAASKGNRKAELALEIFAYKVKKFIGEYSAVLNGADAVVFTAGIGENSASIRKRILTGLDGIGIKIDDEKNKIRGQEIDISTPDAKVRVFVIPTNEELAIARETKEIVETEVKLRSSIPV

[2] = biological target: T2, MtACK (Methanosarcina thermophila acetate kinase) (Methanosarcina thermophila, UniProt P38502, G331Q/I332M); assay: reverse modified hydroxamate assay ([…] nm); format: biochemical; conditions: read-out: ATP IC50 (mM) / Acetate-forming direction
T2 construct: gene ackA; recombinant, produced in E. coli Rosetta2 (DE3) pLysS
T2 sequence (P38502 1-408 G331Q/I332M): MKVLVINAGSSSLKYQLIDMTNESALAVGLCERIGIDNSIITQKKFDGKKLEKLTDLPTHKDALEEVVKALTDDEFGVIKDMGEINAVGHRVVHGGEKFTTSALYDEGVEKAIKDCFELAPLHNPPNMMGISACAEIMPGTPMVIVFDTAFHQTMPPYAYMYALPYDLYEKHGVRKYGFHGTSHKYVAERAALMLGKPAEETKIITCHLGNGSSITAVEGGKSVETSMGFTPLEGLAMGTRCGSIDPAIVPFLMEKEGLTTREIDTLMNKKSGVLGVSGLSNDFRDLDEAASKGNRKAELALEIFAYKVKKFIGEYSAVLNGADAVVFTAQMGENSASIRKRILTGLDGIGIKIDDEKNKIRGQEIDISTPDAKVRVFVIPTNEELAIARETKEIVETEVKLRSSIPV

[3] = biological target: T1, MtACK (Methanosarcina thermophila acetate kinase); assay: hydroxamate assay ([…] nm); format: biochemical; conditions: acetyl phosphate-forming direction; MgATP, co-substrate acetate; 100 mM Tris pH 7.5, 600 mM hydroxylamine, 37 °C; apparent
[4] = biological target: T3, EhACK (Entamoeba histolytica acetate kinase) (Entamoeba histolytica, UniProt C4M1C3, D272A/M324I/Q323G/R274A); assay: biochemical
T3 construct: gene EHI_170010

[5] = biological target: T4, EhACK (Entamoeba histolytica acetate kinase) (Entamoeba histolytica, UniProt C4M1C3); assay: reverse modified hydroxamate assay ([…] nm); format: biochemical; conditions: read-out: ATP IC50 (mM) / Acetate-forming direction
T4 construct: gene EHI_170010; recombinant, produced in E. coli YBS121 delta-ack delta-pta (pREP4)
T4 sequence (C4M1C3 1-392): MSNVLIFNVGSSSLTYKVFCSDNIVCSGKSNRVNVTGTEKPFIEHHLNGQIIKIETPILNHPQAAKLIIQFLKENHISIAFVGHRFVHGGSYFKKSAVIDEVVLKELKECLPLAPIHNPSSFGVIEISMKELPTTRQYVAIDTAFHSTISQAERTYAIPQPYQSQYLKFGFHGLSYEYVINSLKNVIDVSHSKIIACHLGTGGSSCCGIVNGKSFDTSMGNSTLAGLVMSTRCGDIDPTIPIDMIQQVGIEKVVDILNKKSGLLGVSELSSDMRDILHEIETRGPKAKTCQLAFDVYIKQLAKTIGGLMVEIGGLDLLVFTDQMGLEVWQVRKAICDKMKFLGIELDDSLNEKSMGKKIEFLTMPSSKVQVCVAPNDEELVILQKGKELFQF

[6] = biological target: T5, EhACK (Entamoeba histolytica acetate kinase) (Entamoeba histolytica, UniProt C4M1C3, M324I/Q323G); assay: biochemical
T5 construct: gene EHI_170010

[7] = biological target: T6, EhACK (Entamoeba histolytica acetate kinase) (Entamoeba histolytica, UniProt C4M1C3, M324A/Q323A); assay: biochemical
T6 construct: gene EHI_170010

[8] = biological target: T2, MtACK (Methanosarcina thermophila acetate kinase); assay: hydroxamate assay ([…] nm); format: biochemical; conditions: acetyl phosphate-forming direction; MgATP, co-substrate acetate; 100 mM Tris pH 7.5, 600 mM hydroxylamine, 37 °C; apparent
purified protein [9] = substrate: CC(=O)OP(=O)(O)O; assay: purified protein; conditions: acetate-forming direction, apparent
purified protein [10] = substrate: O=P(O)(O)OP(=O)(O)O; assay: purified protein; conditions: acetyl phosphate-forming direction, co-substrate acetate, 5 mM MgCl2, morpholinoethanesulfonic acid pH 5.5, 600 mM hydroxylamine, 45 °C, apparent
purified protein [11] = substrate: O=P(O)(O)O; assay: purified protein; conditions: acetate-forming direction, co-substrate acetyl phosphate, 10 mM MgCl2, 100 mM Tris-HCl pH 7.0, 37 °C, apparent, pH 7.0
purified protein [12] = substrate: CC(=O)O; assay: purified protein; conditions: acetyl phosphate-forming direction, co-substrate MgATP, 100 mM Tris pH 7.5, 600 mM hydroxylamine, 37 °C, apparent, pH 7.5
purified protein [13] = substrate: Nc1ncnc2c1ncn2[C@@H]1O[C@H](COP(=O)(O)OP(=O)(O)O)[C@@H](O)[C@H]1O; assay: purified protein; conditions: acetate-forming direction, MgADP, co-substrate acetyl phosphate, 100 mM Tris pH 7.5, 37 °C, apparent
[14] = co-substrate Pi, 10 mM MgCl2, 100 mM Tris-HCl pH 7.0, 37 °C
[15] = co-substrate MgADP, 100 mM Tris pH 7.5, 37 °C

O=P(O)(O)OP(=O)(O)O [PPi]
IC50 [1]: 3.3 ± 0.06 mM
IC50 [2]: 4 ± 0.28 mM

Nc1ncnc2c1ncn2[C@@H]1O[C@H](COP(=O)(O)OP(=O)(O)OP(=O)(O)O)[C@@H](O)[C@H]1O [ATP]
Km [3]: 1.7 ± 0.03 mM
IC50 [4]: 2.4 ± 0.19 mM
IC50 [5]: 6.1 ± 0.05 mM
IC50 [6]: 4.2 ± 0.3 mM
IC50 [7]: 4.8 ± 0.09 mM
Km [8]: 9.4 ± 0.27 mM

B1: EhACK (Entamoeba histolytica acetate kinase) (Entamoeba histolytica HM-1:IMSS) (protein)
chain: MSNVLIFNVGSSSLTYKVFCSDNIVCSGKSNRVNVTGTEKPFIEHHLNGQIIKIETPILNHPQAAKLIIQFLKENHISIAFVGHRFVHGGSYFKKSAVIDEVVLKELKECLPLAPIHNPSSFGVIEISMKELPTTRQYVAIDTAFHSTISQAERTYAIPQPYQSQYLKFGFHGLSYEYVINSLKNVIDVSHSKIIACHLGTGGSSCCGIVNGKSFDTSMGNSTLAGLVMSTRCGDIDPTIPIDMIQQVGIEKVVDILNKKSGLLGVSELSSDMRDILHEIETRGPKAKTCQLAFDVYIKQLAKTIGGLMVEIGGLDLLVFTDQMGLEVWQVRKAICDKMKFLGIELDDSLNEKSMGKKIEFLTMPSSKVQVCVAPNDEELVILQKGKELFQF
Km (purified protein [9]; [14]): 0.57 ± 0.03 mM
kcat (purified protein [9]; [14]): 266 ± 12 s⁻¹
kcat/Km (purified protein [9]; [14]): 467000 ± 44000 M⁻¹ s⁻¹
Km (purified protein [10]): 2.1 ± 0.33 mM
kcat (purified protein [10]): 0.9 ± 0.03 s⁻¹
kcat/Km (purified protein [10]): 440 ± 60 M⁻¹ s⁻¹
Km (purified protein [11]): 14 ± 1.2 mM
kcat (purified protein [11]): 196 s⁻¹
kcat/Km (purified protein [11]): 14000 M⁻¹ s⁻¹

B2: MtACK (Methanosarcina thermophila acetate kinase) (Methanosarcina thermophila) (protein)
chain: MKVLVINAGSSSLKYQLIDMTNESALAVGLCERIGIDNSIITQKKFDGKKLEKLTDLPTHKDALEEVVKALTDDEFGVIKDMGEINAVGHRVVHGGEKFTTSALYDEGVEKAIKDCFELAPLHNPPNMMGISACAEIMPGTPMVIVFDTAFHQTMPPYAYMYALPYDLYEKHGVRKYGFHGTSHKYVAERAALMLGKPAEETKIITCHLGNGSSITAVEGGKSVETSMGFTPLEGLAMGTRCGSIDPAIVPFLMEKEGLTTREIDTLMNKKSGVLGVSGLSNDFRDLDEAASKGNRKAELALEIFAYKVKKFIGEYSAVLNGADAVVFTAGIGENSASIRKRILTGLDGIGIKIDDEKNKIRGQEIDISTPDAKVRVFVIPTNEELAIARETKEIVETEVKLRSSIPV
Km (purified protein [12]): 20 ± 0.3 mM
kcat (purified protein [12]): 789 s⁻¹
kcat/Km (purified protein [12]): 39000 M⁻¹ s⁻¹
Km (purified protein [9]; [15]): 1.2 ± 0.09 mM
kcat (purified protein [9]; [15]): 1550 ± 54 s⁻¹
kcat/Km (purified protein [9]; [15]): 1.29e+06 ± 56000 M⁻¹ s⁻¹
Km (purified protein [13]): 1.8 ± 0.13 mM
kcat (purified protein [13]): 1915 ± 15 s⁻¹
kcat/Km (purified protein [13]): 1.07e+06 ± 69000 M⁻¹ s⁻¹

B3: MtACK (Methanosarcina thermophila acetate kinase) (Methanosarcina thermophila; G331Q/I332M) (protein)
chain: MKVLVINAGSSSLKYQLIDMTNESALAVGLCERIGIDNSIITQKKFDGKKLEKLTDLPTHKDALEEVVKALTDDEFGVIKDMGEINAVGHRVVHGGEKFTTSALYDEGVEKAIKDCFELAPLHNPPNMMGISACAEIMPGTPMVIVFDTAFHQTMPPYAYMYALPYDLYEKHGVRKYGFHGTSHKYVAERAALMLGKPAEETKIITCHLGNGSSITAVEGGKSVETSMGFTPLEGLAMGTRCGSIDPAIVPFLMEKEGLTTREIDTLMNKKSGVLGVSGLSNDFRDLDEAASKGNRKAELALEIFAYKVKKFIGEYSAVLNGADAVVFTAQMGENSASIRKRILTGLDGIGIKIDDEKNKIRGQEIDISTPDAKVRVFVIPTNEELAIARETKEIVETEVKLRSSIPV
Km (purified protein [13]): 5.7 ± 0.56 mM
kcat (purified protein [13]): 12 ± 0.5 s⁻¹
kcat/Km (purified protein [13]): 2000 ± 140 M⁻¹ s⁻¹
